The values that follow come from publication PMC7672466, “Biophysical analysis of Pseudomonas-phage PaP3 small terminase suggests a mechanism for sequence-specific DNA-binding by lateral interdigitation”.

For data set [1], the target named is Pseudomonas phage LUZ24 small terminase subunit (TerS) (Pseudomonas phage LUZ24). The experiment in a line: AUC; sedimentation velocity; TerS from heparin peak 2 (850 mM NaCl); 40 000 rpm, 6 °C; 20 mM Tris-HCl pH 7.5, 150 mM NaCl, 3 mM DTT, 2.5% glycerol; 1.3-2.2 mg/ml.
For data set [2], the target named is Pseudomonas phage NV1 small terminase subunit (TerS) (Pseudomonas phage NV1). The experiment in a line: SEC-SAXS; TerS from heparin peak 2; PaP3 at 1.7 mg/ml, NV1 at 2.0 mg/ml; Superdex 200 10/300 GL; 20 mM Tris-HCl pH 8.0, 150 mM NaCl, 2.5% glycerol, 0.5 mM TCEP; 4 °C. On the technique in general: Size exclusion chromatography separates by hydrodynamic size, large species first.

The target is the same in data set [3]. The data set is described as follows: crystal structure; TerS from heparin peak 2 at 7.5 mg/ml, vapor diffusion hanging drop; PaP3 at 3.0 Å, NV1 at 3.95 Å.
For data set [4] the target is unchanged. The data set is described as follows: AUC; sedimentation velocity; TerS from heparin peak 2 (850 mM NaCl); 40 000 rpm, 6 °C; 20 mM Tris-HCl pH 7.5, 150 mM NaCl, 3 mM DTT, 2.5% glycerol; 1.3-2.2 mg/ml.
For data set [5], the target named is Pseudomonas phage PaP3 small terminase subunit (TerS) (Pseudomonas phage PaP3). The experiment in a line: SEC-SAXS; TerS from heparin peak 2; PaP3 at 1.7 mg/ml, NV1 at 2.0 mg/ml; Superdex 200 10/300 GL; 20 mM Tris-HCl pH 8.0, 150 mM NaCl, 2.5% glycerol, 0.5 mM TCEP; 4 °C.
The target is the same in data set [6]. The data set is described as follows: crystal structure; TerS from heparin peak 2 at 7.5 mg/ml, vapor diffusion hanging drop; PaP3 at 3.0 Å, NV1 at 3.95 Å.
The target is the same in data set [7]. The experiment in a line: AUC; sedimentation velocity; TerS from heparin peak 2 (850 mM NaCl); 40 000 rpm, 6 °C; 20 mM Tris-HCl pH 7.5, 150 mM NaCl, 3 mM DTT, 2.5% glycerol; 1.3-2.2 mg/ml.
Data set [8] has as its target T1, PaP3 TerS WT (small terminase, peak 2) (Pseudomonas phage PaP3, UniProt Q8H9R5 1-152).
T1 sequence: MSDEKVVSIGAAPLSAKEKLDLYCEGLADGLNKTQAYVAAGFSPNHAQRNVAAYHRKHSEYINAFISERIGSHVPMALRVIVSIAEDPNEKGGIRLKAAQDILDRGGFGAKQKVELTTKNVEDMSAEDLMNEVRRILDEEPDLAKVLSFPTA
The experiment in a line: EMSA; agarose gel, 0-40 uM TerS; EMSA: incubation 37 C 30 min (binding buffer not stated; proteins in GF buffer 20 mM Tris-HCl pH 7.5, 150 mM NaCl, 5 mM bME, 2.5% glycerol); 1% agarose or 4-16% acrylamide gel, 0.5x TBE, 4 C. The note with it: protein: recombinant; tags: GST removed by PreScission protease; chain copies: 9; label: 5' Cy3 on both strands; blunt. On the technique in general: Mobility shift assays separate free from complexed probe on a gel.

“Pseudomonas phage LUZ24 small terminase subunit (TerS) (natural protein)”: the stoichiometry N in data set [1] was determined as 9 mer.
As to “Pseudomonas phage NV1 small terminase subunit (TerS) (natural protein)”, the stoichiometry N was found to be 9 in data set [2], 9 in data set [3] and 9 mer in data set [4].
On to “Pseudomonas phage PaP3 small terminase subunit (TerS) (natural protein)”, for which the figures for the stoichiometry N in data set [5], in data set [6] and in data set [7] were 9, 9 and 9 mer, respectively.

B1: Cy3-cos (dsDNA)
DNA 1: GCCGGCCCCTTTCCGCGTTA
DNA 2: TAACGCGGAAAGGGGCCGGC
For the molecule B1, the binding result in data set [8] is listed as “binds”.

As a reminder, the stoichiometry N is the number of molecules, sites or subunits per partner or assembly.
